Measurements from patent US20260042831A1, “METHODS OF TREATING SARCOIDOSIS WITH A TNF-A ANTIBODY AND ASSOCIATED COMPOSITIONS AND METHODS” (XENTRIA, INC., priority 2022, published 2026).

Target: FcγRIIb (UniProt P31994)
Experiment: Octet QK384, FcγRIIb on Ni-NTA biosensors, 6 XTMAB-16 concentrations, 1:2 heterogeneous ligand model fit

FcγRIIb, sequence (P31994 43-217): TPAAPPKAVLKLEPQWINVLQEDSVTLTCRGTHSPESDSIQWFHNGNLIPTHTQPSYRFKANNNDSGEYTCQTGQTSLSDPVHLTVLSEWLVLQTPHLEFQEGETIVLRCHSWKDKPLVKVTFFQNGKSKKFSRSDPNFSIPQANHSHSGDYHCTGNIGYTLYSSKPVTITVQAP

Kd: 640 nM
Substance: XTMAB-16 (antibody)
